The results in this text go back to US20250144228A1 (CHILDREN S MEDICAL CENTER, published 2025).

Assay [1] deals with T1, MICB expressed on transfected B16F10 melanoma cells (human, UniProt Q29980 23-383).
T1 construct: whole, on cells; also called MICB-transfected cells
T1 sequence (looked up): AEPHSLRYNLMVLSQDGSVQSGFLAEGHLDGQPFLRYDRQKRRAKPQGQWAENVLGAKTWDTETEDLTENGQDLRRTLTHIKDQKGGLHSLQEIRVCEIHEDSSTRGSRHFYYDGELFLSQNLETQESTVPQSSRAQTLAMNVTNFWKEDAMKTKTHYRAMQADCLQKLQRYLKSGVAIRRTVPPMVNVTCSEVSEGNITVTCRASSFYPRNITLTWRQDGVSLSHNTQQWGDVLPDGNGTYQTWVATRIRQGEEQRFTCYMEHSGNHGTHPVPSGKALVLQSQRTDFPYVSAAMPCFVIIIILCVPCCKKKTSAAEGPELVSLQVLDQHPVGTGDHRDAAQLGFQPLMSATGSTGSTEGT
Put plainly: flow cytometry of transfected B16F10 cells, biotinylated nanobody with streptavidin-PE.

The target in assay [2] is T2, P. falciparum MSP-1 subunit p42 (plate-bound, isolated) (Plasmodium falciparum, UniProt Q8I0U8 1327-1699).
T2 construct: domain: p42
T2 sequence: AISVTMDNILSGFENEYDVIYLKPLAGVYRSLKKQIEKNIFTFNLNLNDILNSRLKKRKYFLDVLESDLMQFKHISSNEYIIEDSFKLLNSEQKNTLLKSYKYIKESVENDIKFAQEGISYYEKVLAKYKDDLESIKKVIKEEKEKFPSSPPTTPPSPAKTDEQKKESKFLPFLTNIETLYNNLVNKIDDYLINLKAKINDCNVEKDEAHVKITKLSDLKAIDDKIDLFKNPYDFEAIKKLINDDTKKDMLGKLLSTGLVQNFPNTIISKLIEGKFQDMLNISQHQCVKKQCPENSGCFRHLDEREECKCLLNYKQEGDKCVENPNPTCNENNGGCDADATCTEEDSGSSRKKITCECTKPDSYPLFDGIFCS
Kind of assay: Western blot against PfMSP-1 subunits. A general note: Immunoblotting shows a protein as a band on a membrane.

For assay [3], the target named is T3, P. falciparum MSP-1 subunit p38 (plate-bound, isolated) (Plasmodium falciparum, UniProt Q8I0U8 911-1326).
T3 construct: domain: p38
T3 sequence: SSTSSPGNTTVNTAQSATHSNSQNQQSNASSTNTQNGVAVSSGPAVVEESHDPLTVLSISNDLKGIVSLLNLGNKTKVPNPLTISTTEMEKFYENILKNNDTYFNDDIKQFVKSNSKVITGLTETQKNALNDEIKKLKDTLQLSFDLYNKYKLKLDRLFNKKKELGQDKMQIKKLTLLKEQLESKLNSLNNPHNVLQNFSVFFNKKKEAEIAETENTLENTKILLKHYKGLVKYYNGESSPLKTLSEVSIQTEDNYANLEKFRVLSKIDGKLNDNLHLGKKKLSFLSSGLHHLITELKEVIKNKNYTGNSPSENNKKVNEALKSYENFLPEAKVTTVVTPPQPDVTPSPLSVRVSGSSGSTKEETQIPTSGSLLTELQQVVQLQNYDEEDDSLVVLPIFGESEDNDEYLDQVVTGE
Kind of assay: Western blot against PfMSP-1 subunits.

Assay [4] addresses T4, P. falciparum MSP-1 subunit p83 (plate-bound, isolated) (Plasmodium falciparum, UniProt Q8I0U8 20-722).
T4 construct: domain: p83
T4 sequence: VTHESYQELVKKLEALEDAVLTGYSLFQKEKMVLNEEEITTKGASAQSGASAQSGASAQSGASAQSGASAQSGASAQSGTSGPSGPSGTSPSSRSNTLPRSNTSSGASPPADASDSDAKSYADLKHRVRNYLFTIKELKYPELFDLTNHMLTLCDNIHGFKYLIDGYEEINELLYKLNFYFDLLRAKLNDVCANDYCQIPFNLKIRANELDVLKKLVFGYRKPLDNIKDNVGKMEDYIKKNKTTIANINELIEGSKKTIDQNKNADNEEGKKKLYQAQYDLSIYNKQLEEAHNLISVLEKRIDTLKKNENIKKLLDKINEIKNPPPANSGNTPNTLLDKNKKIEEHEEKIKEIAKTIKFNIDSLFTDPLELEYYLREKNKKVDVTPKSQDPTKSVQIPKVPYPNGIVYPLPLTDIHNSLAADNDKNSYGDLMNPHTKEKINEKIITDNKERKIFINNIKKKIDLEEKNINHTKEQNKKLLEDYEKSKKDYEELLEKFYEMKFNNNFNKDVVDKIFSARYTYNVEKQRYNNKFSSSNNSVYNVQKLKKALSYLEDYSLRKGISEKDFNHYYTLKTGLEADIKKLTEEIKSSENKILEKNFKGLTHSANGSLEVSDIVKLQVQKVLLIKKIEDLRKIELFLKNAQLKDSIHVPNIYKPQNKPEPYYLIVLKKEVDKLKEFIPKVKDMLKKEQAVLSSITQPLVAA
Put plainly: Western blot against PfMSP-1 subunits.

B1: anti-MICA VHH nanobody clone H3 (VHH)
VHH: QVQLVETGGGLVQAGGSLRLSCAASGRTFSSYAMGWFRQAPGKEREFVAGISWSGGSTYYGDSVKGRFTISRDNAKNTVYLLMNSLKPEDTAVYYCAADLVRSYGSSWPSLFQFRNPEDVQDGMDYWGKGTLVTVSS
Take B1: the binding result in assay [1] was “no binding”.

B2: anti-p83 B4 VHH (P. falciparum MSP-1 specific) (VHH)
VHH: QLQLVESGGGLAQAGGSLRLSCAASGRTSSTKPMGWFRQAPGLEREFVASISWLGGSTLYSDSVKGRFTISRDNAKNTVYLQMNSLKSEDTAVYYCAGGTSAYSGRDSSRYEYWGQGTQVTVSS
notes: also called anti-p84 B4
Turning to B2, the binding result in assay [2] and in assay [3] was “no binding” each time.

B3: anti-MICA VHH nanobody clone A1 (VHH)
VHH: QVQLVESGGGLVQPGGSLRLSCAASGFTLDYYDIGWFRQAPGKEREGVSCITSSDGSTYYADSVKGRFTISRDNAKNTVYLQMNSLKPEDTAVYYCAADCTKPQWKSKTEAWGQGTQVTVSS
For the molecule B3, in assay [1], the binding result was “no binding”.

B4: anti-p42 G11 VHH (P. falciparum MSP-1 specific) (VHH)
VHH: QVQLVETGGGLVQAGGSLRLSCVVSGRSLILYGMGWFRQAPGKEREFVAGIVWNGGWTYYADSVKGRFTISRDTAKNTVYLQMNSLKPEDTAVYSCAAGPGDGRRRVAPAEYNYWGQGTQVTVSS
As for B4, the binding result in assay [4] and in assay [3] was “no binding” each time.

B5: anti-p42 A6 VHH (P. falciparum MSP-1 specific) (VHH)
VHH: QVQLVESGGGLVQAGGSLRLSCAASARTFSYYGAAWFRQAPGKEREFVAAVSWNGDDTYYADSVKGRFTISRDNTKNTVSLQMNALKPEDTAVYYCEAAAYGRDWRQSANYVYWGQGTQVTVSS
B5: the binding result in assay [4] and in assay [3] was “no binding” in each case.
